Biological target: the molecule itself
Experiment: SEC; Superdex 200 HiLoad 26/60 gel filtration, 50 mM Tris/HCl pH 8.0, 200 mM NaCl; molecular weight from a calibration plot of log MW versus retention volume

B1: Pseudaminic acid biosynthesis protein H (PseH) from Helicobacter pylori (enzyme, UniProt O25094 1-180, looked up)
chain: MKKNYSYKNIQAIDFTNLNDGEKLLVLEFRNHPNTALWMYSTFISLKTHLQFIEDLKNSPNHRYFLFKEEGVYLGVGSITKINFFHKHGYLGIYKNPFLKNGGETILKALEFIAFEEFQLHSLHLEVMENNFKAIAFYEKNHYELEGRLKGFISKDKEFIDVLLYYKDKKGYNDQSLLKL
notes: PseH, N-acetyltransferase (EC 2.3.1.202) of H. pylori, 21 kDa, residues 1-180; the construct carries an additional GIDPFT fragment (cloning artifact); it is probably N-terminal, left after cleavage of a vector tag (surmised); Crystallised with the cofactor acetyl-CoA; also called flagellin modification protein H; FlmH; source: recombinant, purified as previously described [14]
- stoichiometry N: 2

Reference: article PMC4363471, “Crystal Structure of Helicobacter pylori Pseudaminic Acid Biosynthesis N-Acetyltransferase PseH: Implications for Substrate Specificity and Catalysis” (PLoS ONE, 2015)
